Literature values, collected in article PMC4859893.

Target: EGFR (Homo sapiens) (UniProt P00533)

Kd: 2 nM
Substance: EGF (from UniProt P01133)
